The source of these data is patent publication US6933149B2, “Culture system for mouse tracheal epithelial cells” (North Carolina State University, priority 2001, dated 2005).

The test concerns MTE cell cultures. Description: IL-13 treatment of MTE cell cultures, Periodic Acid Schiff-stained cross-sections. The test is classed as cell-based, mouse. Particulars: for proliferation of MTE cell cultures in response to IL-13: Method 2 cultures (5% serum until air/liquid interface). As to the method: FIGS. 2A and 2B includes two photographs of Periodic Acid Schiff-stained cross-sections of MTE cell cultures. FIG. 2B depicts the control culture that was only exposed to the normal media required for MTE cell growth, while FIG. 2A depicts the IL-13-treated culture which was exposed to recombinant murine IL-13 (10ng/ml) for 9 days.
Epithelial cells isolated from the trachea of two mice were used to seed a one cm^2 area. Cells were placed in the apical chamber of the culture insert in medium comprising DMEM F12 plus additives (see above table). The basolateral chamber was supplied with medium and 10% FCS for 24 hours, after which FCS was no longer added to the basolateral media. Cells were maintained for 5 days and then the apical media was removed to create an air/liquid interface. Cells were then maintained in culture for approximately 16 more days.
The present methods were also used to achieve MTE cultures grown with 5% serum until the air/liquid interface is established. This is referred to as “Method 2—Combination.” This approach allows for more rapid growth of the cells while removing the confounding effects of serum for the experimentation period. […] FIGS. 2A and 2B illustrate the increase in the epithelial cell number of cell cultures exposed to an IL-13 regimen. Specifically FIGS. 2A and 2B show two photographs of Periodic Acid Schiff-stained cross-sections of MTE cell cultures. FIG. 2A depicts an IL-13-treated culture that was exposed to recombinant murine IL-13 (10ng/ml) for 9 days while FIG. 2B is a photograph of a control culture that was only exposed to the normal media required for MTE cell growth.

B1: IL-13: recombinant murine IL-13, an inflammatory mediator shown to mediate epithelial cell proliferation (protein, UniProt P20109 19-131, looked up)
Interleukin-13: APGPVPRSVSLPLTLKELIEELSNITQDQTPLCNGSMVWSVDLAAGGFCVALDSLTNISNCNAIYRTQRILHGLCNRKAPTTVSSLPDTKIEVAHFITKLLSYTKQLFRHGPF
In the case of B1, the “proliferation of MTE cell cultures in response to IL-13” value is given as “respond to IL-13 with proliferation”. Moreover, the “proliferation of MTE cell cultures in response to IL-13” value (listed as interleukin 13) is given as “proliferate”. The epithelial cell number entry (recombinant murine IL-13 10ng/ml for 9 days vs control culture in normal media, FIGS. 2A and 2B) is recorded as “increase in epithelial cell number”.
